The values that follow come from US20210380703A1 (RIGEL PHARMACEUTICALS, published 2021).

One assay concerns the target human ACVR2A (human, UniProt P27037 20-135, limits assumed). As to the kind of experiment: ELISA. The procedure, abridged: (§1)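 Binding signal was read by ELISA after ACVR2A-specific monoclonal antibodies were tested against human ACVR2A and mouse ACVR2A, with human Fc as the negative control.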
Background: ELISA stands for enzyme-linked immunosorbent assay.

The target of a further assay is mouse ACVR2A (mouse, UniProt P27038 20-135, limits assumed). The assay is described as follows: ELISA. The procedure, abridged: as §1
The target in assay [1] is T1, biotinylated goat anti-human kappa light chain.
T1 construct: Positive control of the ELISA
The assay is described as follows: ELISA; positive control. The procedure, abridged:
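mAb binding by ELISA; antigens: hu ACVR2A, mu ACVR2A; pos ctrl biotinylated goat anti-hu kappa LC; neg ctrl hu Fc.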
Note: test concentration or dose not given here.

mouse ACVR2A, sequence (P27038 20-135 limits assumed): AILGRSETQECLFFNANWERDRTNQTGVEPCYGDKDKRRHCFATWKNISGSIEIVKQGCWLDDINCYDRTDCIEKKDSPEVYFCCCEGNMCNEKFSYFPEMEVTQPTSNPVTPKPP
human ACVR2A, sequence (P27037 20-135 limits assumed): as the sequence (P27038 20-135 limits assumed) above, with R20K, I73V counted along it

B1: 374_H04 (antibody, V domains shown)
VH: EVQLLESGGGLVQPGGSLRLSCAASGFTFDSYSMNWVRQAPGKGLEWVSGINYNSGYTSYADSVKGRFTISRDNSKNTLYLQMNSLRAEDTAVYYCARSANWHDTALDYWGQGTLVTVSS
VL: DIQMTQSPSSLSASVGDRVTITCRASQSILTYLNWYQQKPGKAPKLLIYAATSRASGVPSRFSGSGSGTDFTLTISSLQPEDFATYYCQQSYDNPLTFGGGTKVEIK
notes: VH/VL only
On to B1, for which the optical density stood at 3.28 OD with human ACVR2A, 3.31 OD in the assay with mouse ACVR2A and 3.19 OD in assay [1].

B2: 375_D07 (antibody, V domains shown)
VH: EVQLLESGGGLVQPGGSLRLSCAASGFTFSSYGMNWVRQAPGKGLEWVANINYNSGYTGYADSVKGRFTISRDNSKNTLYLQMNSLRAEDTAVYYCARSANWHDTALDYWGQGTLVTVSS
VL: DIQMTQSPSSLSASVGDRVTITCRASQSIITYLNWYQQKPGKAPKLLIYAATSRASGVPSRFSGSGSGTDFTLTISSLQPEDFATYYCQQSYDTPLTFGGGTKVEIK
notes: VH/VL only
For B2, the optical density in the assay with human ACVR2A was found to be 3.56 OD; with mouse ACVR2A, 3.63 OD; in assay [1] it was 3.25 OD.

B3: 375_B04 (antibody, V domains shown)
VH: EVQLLESGGGLVQPGGSLRLSCAASGFTFDSYSMNWVRQAPGKGLEWVANINYNGGYTGYADSVKGRFTISRDNSKNTLYLQMNSLRAEDTAVYYCARSATWHDTHLDYWGQGTLVTVSS
VL: DIQMTQSPSSLSASVGDRVTITCRASQSILTYLNWYQQKPGKAPKLLIYAATSRASGVPSRFSGSGSGTDFTLTISSLQPEDFATYYCQQSYDNPLTFGGGTKVEIK
notes: VH/VL only
As for B3, the values for the optical density (with human ACVR2A; in the assay with mouse ACVR2A; in assay [1]) were 3.69 OD, 3.73 OD and 3.26 OD, respectively.

B4: 374_H08 (antibody, V domains shown)
VH: EVQLLESGGGLVQPGGSLRLSCAASGFTFDSYSMNWVRQAPGKGLEWVSGINYNGGYTGYADSVKGRFTISRDNSKNTLYLQMNSLRAEDTAVYYCARSATWHDTHLDYWGQGTLVTVSS
VL: DIQMTQSPSSLSASVGDRVTITCRASQSILSYLNWYQQKPGKAPKLLIYAATSLHSGVPSRFSGSGSGTDFTLTISSLQPEDFATYYCQQSYENPLTFGGGTKVEIK
notes: VH/VL only
Consider B4, for which the optical density came to 3.31 OD in the assay with human ACVR2A, 3.27 OD in the assay with mouse ACVR2A and 3.09 OD in assay [1].

B5: 375_A05 (antibody, V domains shown)
VH: EVQLLESGGGLVQPGGSLRLSCAASGFTFSSYGMNWVRQAPGKGLEWVANINYNGGYKGYADSVKGRFTISRDNSKNTLYLQMNSLRAEDTAVYYCARSANWHDTALDYWGQGTLVTVSS
VL: DIQMTQSPSSLSASVGDRVTITCRASQSILSYLNWYQQKPGKAPKLLIYAATSRASGVPSRFSGSGSGTDFTLTISSLQPEDFATYYCQQSYDLPLTFGGGTKVEIK
notes: VH/VL only
Regarding B5, the results for the optical density (in the assay with human ACVR2A; in the assay with mouse ACVR2A; in assay [1]) were 3.72 OD, 3.69 OD and 3.12 OD, respectively.

B6: 375_D05 (antibody, V domains shown)
VH: EVQLLESGGGLVQPGGSLRLSCAASGFTFSSYSMNWVRQAPGKGLEWVASINYNSGYTSYADSVKGRFTISRDNSKNTLYLQMNSLRAEDTAVYYCARSANWHDTHLDYWGQGTLVTVSS
VL: DIQMTQSPSSLSASVGDRVTITCRASQSIVSYLNWYQQKPGKAPKLLIYAATSLHSGVPSRFSGSGSGTDFTLTISSLQPEDFATYYCQQSYDTPLTFGGGTKVEIK
notes: VH/VL only
B6: the optical density with human ACVR2A was 3.46 OD; with mouse ACVR2A it was 3.61 OD; in assay [1], 3.21 OD.

B7: 375_C12 (antibody, V domains shown)
VH: EVQLLESGGGLVQPGGSLRLSCAASGFTFSSYSMNWVRQAPGKGLEWVANINYNGGYTGYADSVKGRFTISRDNSKNTLYLQMNSLRAEDTAVYYCARSATWHDTHLDYWGQGTLVTVSS
VL: DIQMTQSPSSLSASVGDRVTITCRASQSILTYLNWYQQKPGKAPKLLIYAATSRASGVPSRFSGSGSGTDFTLTISSLQPEDFATYYCQQSYDLPLTFGGGTKVEIK
notes: VH/VL only
As to B7, the optical density with human ACVR2A was 3.66 OD; with mouse ACVR2A it was 3.33 OD; in assay [1], 3.27 OD.

B8: 375_G07 (antibody, V domains shown)
VH: EVQLLESGGGLVQPGGSLRLSCAASGFTFDSYSMNWVRQAPGKGLEWVAGINYNSGYTSYADSVKGRFTISRDNSKNTLYLQMNSLRAEDTAVYYCARSATWHDTHLDYWGQGTLVTVSS
VL: DIQMTQSPSSLSASVGDRVTITCRASQSILSYLNWYQQKPGKAPKLVIYAATSLASGVPSRFSGSGSGTDFTLTISSLQPEDFATYYCQQSYDLPLTFGGGTKVEIK
notes: VH/VL only
Turning to B8, the optical density with human ACVR2A is 3.63 OD; with mouse ACVR2A, 3.67 OD; in assay [1] it was 3.2 OD.

B9: 375_D12 (antibody, V domains shown)
VH: EVQLLESGGGLVQPGGSLRLSCAASGFTFDSYGMNWVRQAPGKGLEWVSSINYNSGYTSYADSVKGRFTISRDNSKNTLYLQMNSLRAEDTAVYYCARSANWHDTALDYWGQGTLVTVSS
VL: DIQMTQSPSSLSASVGDRVTITCRASQSILTYVNWYQQKPGKAPKLVIYAATSRASGVPSRFSGSGSGTDFTLTISSLQPEDFATYYCQQSYETPLTFGGGTKVEIK
notes: VH/VL only
Regarding B9, the optical density in the assay with human ACVR2A worked out at 3.24 OD; with mouse ACVR2A, 3.16 OD; in assay [1], 3.23 OD.

B10: 375_E07 (antibody, V domains shown)
VH: EVQLLESGGGLVQPGGSLRLSCAASGFTFSDYSMNWVRQAPGKGLEWVAGINYNSGYKGYADSVKGRFTISRDNSKNTLYLQMNSLRAEDTAVYYCARSANWHDTALDYWGQGTLVTVSS
VL: DIQMTQSPSSLSASVGDRVTITCRASQSIVTYLNWYQQKPGKAPKLLIYVVTNRESGVPSRFSGSGSGTDFTLTISSLQPEDFATYYCQQSYETPLTFGGGTKVEIK
notes: VH/VL only
As to B10, the figures for the optical density (in the assay with human ACVR2A; in the assay with mouse ACVR2A; in assay [1]) were 3.68 OD, 3.81 OD and 3.06 OD, respectively.

B11: 375_A06 (antibody, V domains shown)
VH: EVQLLESGGGLVQPGGSLRLSCAASGFTFSSYSMNWVRQAPGKGLEWVAGINYNSGYKGYADSVKGRFTISRDNSKNTLYLQMNSLRAEDTAVYYCARSATWHDTHLDYWGQGTLVTVSS
VL: DIQMTQSPSSLSASVGDRVTITCRASQSILTYVNWYQQKPGKAPKLLIYAASSLQSGVPSRFSGSGSGTDFTLTISSLQPEDFATYYCQQSYSTPLTFGGGTKVEIK
notes: VH/VL only
Take B11: the optical density was found to be 3.65 OD with human ACVR2A, 3.71 OD in the assay with mouse ACVR2A and 3.11 OD in assay [1].

B12: 375_E01 (antibody, V domains shown)
VH: EVQLLESGGGLVQPGGSLRLSCAASGFTFSSYSMNWVRQAPGKGLEWVSGINYNSGYKSYADSVKGRFTISRDNSKNTLYLQMNSLRAEDTAVYYCARSANWHDTALDYWGQGTLVTVSS
VL: DIQMTQSPSSLSASVGDRVTITCRASQSILTYLNWYQQKPGKAPKLVIYAATSRASGVPSRFSGSGSGTDFTLTISSLQPEDFATYYCQQSDDSPLTFGGGTKVEIK
notes: VH/VL only
As for B12, the optical density came to 3.16 OD in the assay with human ACVR2A, 3.63 OD with mouse ACVR2A and 3.11 OD in assay [1].

B13: 374_H07 (antibody, V domains shown)
VH: EVQLLESGGGLVQPGGSLRLSCAASGFTFDSYGMNWVRQAPGKGLEWVANINYNGGYTGYADSVKGRFTISRDNSKNTLYLQMNSLRAEDTAVYYCARSANWHDTALDYWGQGTLVTVSS
VL: DIQMTQSPSSLSASVGDRVTITCRASQSILTYLNWYQQKPGKAPKLLIYAATSRASGVPSRFSGSGSGTDFTLTISSLQPEDFATYYCQQSYETPLTFGGGTKVEIK
notes: VH/VL only
For B13, the optical density with human ACVR2A stood at 3.24 OD; in the assay with mouse ACVR2A, 3.25 OD; in assay [1], 2.97 OD.

B14: 375_D08 (antibody, V domains shown)
VH: EVQLLESGGGLVQPGGSLRLSCAASGFTFSDYGMNWVRQAPGKGLEWVSGINYNSGYKGYADSVKGRFTISRDNSKNTLYLQMNSLRAEDTAVYYCARSANWHDTALDYWGQGTLVTVSS
VL: DIQMTQSPSSLSASVGDRVTITCRASQSIITYLNWYQQKPGKAPKLLIYAATSRASGVPSRFSGSGSGTDFTLTISSLQPEDFATYYCQQSYSTPLTFGGGTKVEIK
notes: VH/VL only
In the case of B14, the optical density in the assay with human ACVR2A amounted to 3.29 OD; with mouse ACVR2A, 3.4 OD; in assay [1] it was 3.3 OD.

B15: 375_A02 (antibody, V domains shown)
VH: EVQLLESGGGLVQPGGSLRLSCAASGFTFSSYSMNWVRQAPGKGLEWVAGINYNSGYTSYADSVKGRFTISRDNSKNTLYLQMNSLRAEDTAVYYCARSATWHDTHLDYWGQGTLVTVSS
VL: not shown
notes: VH/VL only
Turning to B15, the values for the optical density (with human ACVR2A; with mouse ACVR2A; in assay [1]) were 2.98 OD, 3.18 OD and 3.07 OD, respectively.

B16: 374_H06 (antibody, V domains shown)
VH: EVQLLESGGGLVQPGGSLRLSCAASGFTFSSYGMNWVRQAPGKGLEWVSNINYNGGYTGYADSVKGRFTISRDNSKNTLYLQMNSLRAEDTAVYYCARSANWHDTALDYWGQGTLVTVSS
VL: DIQMTQSPSSLSASVGDRVTITCRASQSIVSYVNWYQQKPGKAPKLVIYAATSRASGVPSRFSGSGSGTDFTLTISSLQPEDFATYYCQQSYNLPLTFGGGTKVEIK
notes: VH/VL only
As to B16, the optical density in the assay with human ACVR2A worked out at 3.3 OD; with mouse ACVR2A, 3.26 OD; in assay [1], 3.08 OD.

B17: 375_C06 (antibody, V domains shown)
VH: EVQLLESGGGLVQPGGSLRLSCAASGFTFDDYGMHWVRQAPGKGLEWVASINYNSGYTSYADSVKGRFTISRDNSKNTLYLQMNSLRAEDTAVYYCARSANWHDTALDYWGQGTLVTVSS
VL: DIQMTQSPSSLSASVGDRVTITCRASQSILTYVNWYQQKPGKAPKLVIYATTSRASGVPSRFSGSGSGTDFTLTISSLQPEDFATYYCQQSYDSPLTFGGGTKVEIK
notes: VH/VL only
Regarding B17, the values for the optical density (with human ACVR2A; in the assay with mouse ACVR2A; in assay [1]) were 2.65 OD, 3.21 OD and 3.29 OD, respectively.

B18: 374_H09 (antibody, V domains shown)
VH: EVQLLESGGGLVQPGGSLRLSCAASGFTFSSYSMNWVRQAPGKGLEWVANINYNSGYKSYADSVKGRFTISRDNSKNTLYLQMNSLRAEDTAVYYCARSANWHDTALDYWGQGTLVTVSS
VL: DIQMTQSPSSLSASVGDRVTITCRASQSILSYLNWYQQKPGKAPKLVIYAVTSLASGVPSRFSGSGSGTDFTLTISSLQPEDFATYYCQQSYDLPLTFGGGTKVEIK
notes: VH/VL only
With B18, the optical density stood at 3.25 OD with human ACVR2A, 3.26 OD with mouse ACVR2A and 3.04 OD in assay [1].
